Tests used:
HCV proteins = target: T1, HCV proteins (Hepatitis C virus genotype 1b, UniProt Q9WMX2); test: Validation by Y2H pairwise matrices; type: binding; conditions: validation of interaction with HCV protein NS3;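 also: yeast two-hybrid pairwise tests of interactions first found in Y2H screens of HCV bait proteins against human cDNA libraries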
T1 construct: expressed in transfected cells

[1] = target: T2, HCV ORFs (Gal4-DB fusions) (Hepatitis C virus genotype 1b, UniProt Q9WMX2); type: binding, HCV genotype 1b, isolate con1; conditions: HCV protein NS3 as bait; human protein as prey
T2 construct: expressed in transfected cells; host or cells: Saccharomyces cerevisiae MAV203 (IMAP1) / AH109 (IMAP2)

[2] = system: HCV ORFs (Gal4-DB fusions); type: binding, HCV genotype 1b, isolate con1; conditions: human protein listed by gene symbol; the value names the HCV protein it interacts with
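For IMAP Y2H IMAP1 (number of IST) in this document: yeast two-hybrid screens using HCV genotype 1b proteins fused to Gal4-DB as baits against prey cDNA libraries from human spleen and foetal brain, IMAP1 via transformation and IMAP2 via mating.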
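For IMAP Y2H IMAP2 (number of IST) in this document: yeast two-hybrid screens using HCV genotype 1b proteins fused to Gal4-DB as baits against prey cDNA libraries from human spleen and foetal brain, IMAP1 via transformation and IMAP2 via mating.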
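For Interaction with viral protein in this document: yeast two-hybrid screens using HCV genotype 1b proteins fused to Gal4-DB as baits against prey cDNA libraries from human spleen and foetal brain, IMAP1 via transformation and IMAP2 via mating.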

T1 sequence (Q9WMX2 1027-1657): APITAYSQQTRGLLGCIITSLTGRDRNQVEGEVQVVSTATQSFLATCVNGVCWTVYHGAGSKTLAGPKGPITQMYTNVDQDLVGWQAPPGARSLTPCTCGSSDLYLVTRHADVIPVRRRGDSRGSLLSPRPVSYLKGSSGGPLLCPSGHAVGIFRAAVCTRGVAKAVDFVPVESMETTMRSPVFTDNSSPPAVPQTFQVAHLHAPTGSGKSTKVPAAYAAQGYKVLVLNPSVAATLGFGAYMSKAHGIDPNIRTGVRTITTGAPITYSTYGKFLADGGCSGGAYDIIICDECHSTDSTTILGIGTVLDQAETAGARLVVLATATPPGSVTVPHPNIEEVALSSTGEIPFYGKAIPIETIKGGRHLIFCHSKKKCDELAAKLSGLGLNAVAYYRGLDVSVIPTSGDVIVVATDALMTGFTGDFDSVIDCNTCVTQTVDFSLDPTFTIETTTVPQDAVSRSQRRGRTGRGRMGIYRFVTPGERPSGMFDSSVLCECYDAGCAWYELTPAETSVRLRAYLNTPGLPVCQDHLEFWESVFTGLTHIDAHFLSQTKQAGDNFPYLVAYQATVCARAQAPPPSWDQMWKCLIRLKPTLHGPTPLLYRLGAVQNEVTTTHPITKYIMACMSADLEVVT
T2 sequence (Q9WMX2 1027-1657): as above

B1: FIGNL1 (protein, UniProt Q6PIW4 1-674, looked up)
Fidgetin-like protein 1: MQTSSSRSVHLSEWQKNYFAITSGICTGPKADAYRAQILRIQYAWANSEISQVCATKLFKKYAEKYSAIIDSDNVESGLNNYAENILTLAGSQQTDSDKWQSGLSINNVFKMSSVQKMMQAGKKFKDSLLEPALASVVIHKEATVFDLPKFSVCGSSQESDSLPNSAHDRDRTQDFPESNRLKLLQNAQPPMVTNTARTCPTFSAPVGESATAKFHVTPLFGNVKKENHSSAKENIGLNVFLSNQSCFPAACENPQRKSFYGSGTIDALSNPILNKACSKTEDNGPKEDSSLPTFKTAKEQLWVDQQKKYHQPQRASGSSYGGVKKSLGASRSRGILGKFVPPIPKQDGGEQNGGMQCKPYGAGPTEPAHPVDERLKNLEPKMIELIMNEIMDHGPPVNWEDIAGVEFAKATIKEIVVWPMLRPDIFTGLRGPPKGILLFGPPGTGKTLIGKCIASQSGATFFSISASSLTSKWVGEGEKMVRALFAVARCQQPAVIFIDEIDSLLSQRGDGEHESSRRIKTEFLVQLDGATTSSEDRILVVGATNRPQEIDEAARRRLVKRLYIPLPEASARKQIVINLMSKEQCCLSEEEIEQIVQQSDAFSGADMTQLCREASLGPIRSLQTADIATITPDQVRPIAYIDFENAFRTVRPSVSPKDLELYENWNKTFGCGK
Y2H matrices (HCV proteins): +
IMAP Y2H IMAP1 (number of IST) [1]: 1
Interaction with viral protein [2]: NS3

B2: KIF17 (protein, UniProt Q9P2E2 1-1029, looked up)
Kinesin-like protein KIF17: MASEAVKVVVRCRPMNQRERELRCQPVVTVDCARAQCCIQNPGAADEPPKQFTFDGAYHVDHVTEQIYNEIAYPLVEGVTEGYNGTIFAYGQTGSGKSFTMQGLPDPPSQRGIIPRAFEHVFESVQCAENTKFLVRASYLEIYNEDVRDLLGADTKQKLELKEHPEKGVYVKGLSMHTVHSVAQCEHIMETGWKNRSVGYTLMNKDSSRSHSIFTISIEMSAVDERGKDHLRAGKLNLVDLAGSERQSKTGATGERLKEATKINLSLSALGNVISALVDGRCKHVPYRDSKLTRLLQDSLGGNTKTLMVACLSPADNNYDETLSTLRYANRAKNIRNKPRINEDPKDALLREYQEEIKKLKAILTQQMSPSSLSALLSRQVPPDPVQVEEKLLPQPVIQHDVEAEKQLIREEYEERLARLKADYKAEQESRARLEEDITAMRNSYDVRLSTLEENLRKETEAVLQVGVLYKAEVMSRAEFASSAEYPPAFQYETVVKPKVFSTTDTLPSDDVSKTQVSSRFAELPKVEPSKSEISLGSSESSSLEETSVSEAFPGPEEPSNVEVSMPTEESRSRYFLDECLGQEAAGHLLGEQNYLPQEEPQEVPLQGLLGLQDPFAEVEAKLARLSSTVARTDAPQADVPKVPVQVPAPTDLLEPSDARPEAEAADDFPPRPEVDLASEVALEVVRTAEPGVWLEAQAPVALVAQPEPLPATAGVKRESVGMEVAVLTDDPLPVVDQQQVLARLQLLEQQVVGGEQAKNKDLKEKHKRRKRYADERRKQLVAALQNSDEDSGDWVLLNVYDSIQEEVRAKSKLLEKMQRKLRAAEVEIKDLQSEFQLEKIDYLATIRRQERDSMLLQQLLEQVQPLIRRDCNYSNLEKILRESCWDEDNGFWKIPHPVITKTSLPVAVSTGPQNKPARKTSAADNGEPNMEDDRYRLMLSRSNSENIASNYFRSKRASQILSTDARKSLTHHNSPPGLSCPLSNNSAIPPTQAPEMPQPRPFRLESLDIPFTKAKRKKSKSNFGSEPL
Y2H matrices (HCV proteins): +
IMAP Y2H IMAP1 (number of IST) [1]: 2
Interaction with viral protein [2]: NS3

B3: IQWD1 (protein, UniProt Q58WW2 1-860, looked up)
DDB1- and CUL4-associated …: MSRGGSYPHLLWDVRKRSLGLEDPSRLRSRYLGRREFIQRLKLEATLNVHDGCVNTICWNDTGEYILSGSDDTKLVISNPYSRKVLTTIRSGHRANIFSAKFLPCTNDKQIVSCSGDGVIFYTNVEQDAETNRQCQFTCHYGTTYEIMTVPNDPYTFLSCGEDGTVRWFDTRIKTSCTKEDCKDDILINCRRAATSVAICPPIPYYLAVGCSDSSVRIYDRRMLGTRATGNYAGRGTTGMVARFIPSHLNNKSCRVTSLCYSEDGQEILVSYSSDYIYLFDPKDDTARELKTPSAEERREELRQPPVKRLRLRGDWSDTGPRARPESERERDGEQSPNVSLMQRMSDMLSRWFEEASEVAQSNRGRGRSRPRGGTSQSDISTLPTVPSSPDLEVSETAMEVDTPAEQFLQPSTSSTMSAQAHSTSSPTESPHSTPLLSSPDSEQRQSVEASGHHTHHQSDNNNEKLSPKPGTGEPVLSLHYSTEGTTTSTIKLNFTDEWSSIASSSRGIGSHCKSEGQEESFVPQSSVQPPEGDSETKAPEESSEDVTKYQEGVSAENPVENHINITQSDKFTAKPLDSNSGERNDLNLDRSCGVPEESASSEKAKEPETSDQTSTESATNENNTNPEPQFQTEATGPSAHEETSTRDSALQDTDDSDDDPVLIPGARYRAGPGDRRSAVARIQEFFRRRKERKEMEELDTLNIRRPLVKMVYKGHRNSRTMIKEANFWGANFVMSGSDCGHIFIWDRHTAEHLMLLEADNHVVNCLQPHPFDPILASSGIDYDIKIWSPLEESRIFNRKLADEVITRNELMLEETRNTITVPASFMLRMLASLNHIRADRLEGDRSEGSGQENENEDEE
Y2H matrices (HCV proteins): +
IMAP Y2H IMAP1 (number of IST) [1]: 2
Interaction with viral protein [2]: NS3

B4: GNB2 (protein, UniProt P62879 2-340, looked up)
Guanine nucleotide-binding …: SELEQLRQEAEQLRNQIRDARKACGDSTLTQITAGLDPVGRIQMRTRRTLRGHLAKIYAMHWGTDSRLLVSASQDGKLIIWDSYTTNKVHAIPLRSSWVMTCAYAPSGNFVACGGLDNICSIYSLKTREGNVRVSRELPGHTGYLSCCRFLDDNQIITSSGDTTCALWDIETGQQTVGFAGHSGDVMSLSLAPDGRTFVSGACDASIKLWDVRDSMCRQTFIGHESDINAVAFFPNGYAFTTGSDDATCRLFDLRADQELLMYSHDNIICGITSVAFSRSGRLLLAGYDDFNCNIWDAMKGDRAGVLAGHDNRVSCLGVTDDGMAVATGSWDSFLKIWN
Y2H matrices (HCV proteins): +
IMAP Y2H IMAP1 (number of IST) [1]: 1
Interaction with viral protein [2]: NS3

B5: FRMPD4 (protein, UniProt Q14CM0 1-1322, looked up)
FERM and PDZ …: MDVFSFVKIAKLSSHRTKSSGWPPPSGTWGLSQVPPYGWEMTANRDGRDYFINHMTQAIPFDDPRLESCQIIPPAPRKVEMRRDPVLGFGFVAGSEKPVVVRSVTPGGPSEGKLIPGDQIVMINDEPVSAAPRERVIDLVRSCKESILLTVIQPYPSPKSAFISAAKKARLKSNPVKVRFSEEVIINGQVSETVKDNSLLFMPNVLKVYLENGQTKSFRFDCSTSIKDVILTLQEKLSIKGIEHFSLMLEQRTEGAGTKLLLLHEQETLTQVTQRPSSHKMRCLFRISFVPKDPIDLLRRDPVAFEYLYVQSCNDVVQERFGPELKYDIALRLAALQMYIATVTTKQTQKISLKYIEKEWGLETFLPSAVLQSMKEKNIKKALSHLVKANQNLVPPGKKLSALQAKVHYLKFLSDLRLYGGRVFKATLVQAEKRSEVTLLVGPRYGISHVINTKTNLVALLADFSHVNRIEMFSEEESLVRVELHVLDVKPITLLMESSDAMNLACLTAGYYRLLVDSRRSIFNMANKKNTATQETGPENKGKHNLLGPDWNCIPQMTTFIGEGEQEAQITYIDSKQKTVEITDSTMCPKEHRHLYIDNAYSSDGLNQQLSQPGEAPCEADYRSLAQRSLLTLSGPETLKKAQESPRGAKVSFIFGDFALDDGISPPTLGYETLLDEGPEMLEKQRNLYIGSANDMKGLDLTPEAEGIQFVENSVYANIGDVKSFQAAEGIEEPLLHDICYAENTDDAEDEDEVSCEEDLVVGEMNQPAILNLSGSSDDIIDLTSLPPPEGDDNEDDFLLRSLNMAIAAPPPGFRDSSDEEDSQSQAASFPEDKEKGSSLQNDEIPVSLIDAVPTSAEGKCEKGLDNAVVSTLGALEALSVSEEQQTSDNSGVAILRAYSPESSSDSGNETNSSEMTESSELATAQKQSENLSRMFLATHEGYHPLAEEQTEFPASKTPAGGLPPKSSHALAARPATDLPPKVVPSKQLLHSDHMEMEPETMETKSVTDYFSKLHMGSVAYSCTSKRKSKLADGEGKAPPNGNTTGKKQQGTKTAEMEEEASGKFGTVSSRDSQHLSTFNLERTAFRKDSQRWYVATEGGMAEKSGLEAATGKTFPRASGLGAREAEGKEEGAPDGETSDGSGLGQGDRFLTDVTCASSAKDLDNPEDADSSTCDHPSKLPEADESVARLCDYHLAKRMSSLQSEGHFSLQSSQGSSVDAGCGTGSSGSACATPVESPLCPSLGKHLIPDASGKGVNYIPSEERAPGLPNHGATFKELHPQTEGMCPRMTVPALHTAINTEPLFGTLRDGCHRLPKIKETTV
Y2H matrices (HCV proteins): +
IMAP Y2H IMAP1 (number of IST) [1]: 1
Interaction with viral protein [2]: NS3

B6: HOMER3 (protein, UniProt Q9NSC5 1-361, looked up)
Homer protein homolog 3: MSTAREQPIFSTRAHVFQIDPATKRNWIPAGKHALTVSYFYDATRNVYRIISIGGAKAIINSTVTPNMTFTKTSQKFGQWADSRANTVYGLGFASEQHLTQFAEKFQEVKEAARLAREKSQDGGELTSPALGLASHQVPPSPLVSANGPGEEKLFRSQSADAPGPTERERLKKMLSEGSVGEVQWEAEFFALQDSNNKLAGALREANAAAAQWRQQLEAQRAEAERLRQRVAELEAQAASEVTPTGEKEGLGQGQSLEQLEALVQTKDQEIQTLKSQTGGPREALEAAEREETQQKVQDLETRNAELEHQLRAMERSLEEARAERERARAEVGRAAQLLDVSLFELSELREGLARLAEAAP
Y2H matrices (HCV proteins): +
IMAP Y2H IMAP1 (number of IST) [1]: 4
IMAP Y2H IMAP2 (number of IST) [1]: 1
Interaction with viral protein [2]: NS3

B7: FUCA2 (protein, UniProt Q9BTY2 29-467, looked up)
Plasma alpha-L-fucosidase: HSATRFDPTWESLDARQLPAWFDQAKFGIFIHWGVFSVPSFGSEWFWWYWQKEKIPKYVEFMKDNYPPSFKYEDFGPLFTAKFFNANQWADIFQASGAKYIVLTSKHHEGFTLWGSEYSWNWNAIDEGPKRDIVKELEVAIRNRTDLRFGLYYSLFEWFHPLFLEDESSSFHKRQFPVSKTLPELYELVNNYQPEVLWSDGDGGAPDQYWNSTGFLAWLYNESPVRGTVVTNDRWGAGSICKHGGFYTCSDRYNPGHLLPHKWENCMTIDKLSWGYRREAGISDYLTIEELVKQLVETVSCGGNLLMNIGPTLDGTISVVFEERLRQMGSWLKVNGEAIYETHTWRSQNDTVTPDVWYTSKPKEKLVYAIFLKWPTSGQLFLGHPKAILGATEVKLLGHGQPLNWISLEQNGIMVELPQLTIHQMPCKWGWALALTNVI
Y2H matrices (HCV proteins): +
IMAP Y2H IMAP1 (number of IST) [1]: 2
Interaction with viral protein [2]: NS3
